What was measured:
Test in all cases: ELISA on coated NKG2D-Fc;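 further: titrated NKG2D binders added to plates coated with human, mouse or cynomolgus NKG2D ectodomain–human IgG1 Fc fusions, detected by HRP anti-human kappa antibody with TMB, absorbance at 450 nm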
[1] = molecular target: T1, mouse recombinant NKG2D-Fc (mouse; human, UniProt O54709 90-232)
T1 construct: extracellular domain; also called recombinant mouse NKG2D-Fc; Mouse NKG2D-Fc-biotin; not shown: human IgG1 Fc domain
T1 sequence (looked up): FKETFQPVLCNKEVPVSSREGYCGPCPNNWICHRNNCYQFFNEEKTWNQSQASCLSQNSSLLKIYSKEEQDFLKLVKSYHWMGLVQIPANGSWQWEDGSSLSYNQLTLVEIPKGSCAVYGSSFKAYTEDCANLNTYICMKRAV

[2] = molecular target: T2, human recombinant NKG2D-Fc (human, UniProt P26718 73-216)
T2 construct: extracellular domain; also called recombinant human NKG2D-Fc; NKG2D-Fc fusion protein; not shown: human IgG1 Fc domain
T2 sequence (looked up): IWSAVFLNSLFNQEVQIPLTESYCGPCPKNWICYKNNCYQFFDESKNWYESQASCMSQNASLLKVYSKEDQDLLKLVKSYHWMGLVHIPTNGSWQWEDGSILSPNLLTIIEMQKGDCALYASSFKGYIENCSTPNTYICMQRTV

[3] = molecular target: T3, cynomolgus recombinant NKG2D-Fc (cynomolgus; human, UniProt P61252 73-216)
T3 construct: extracellular domain; also called cynomolgus NKG2D-Fc; not shown: human IgG1 Fc domain
T3 sequence (looked up): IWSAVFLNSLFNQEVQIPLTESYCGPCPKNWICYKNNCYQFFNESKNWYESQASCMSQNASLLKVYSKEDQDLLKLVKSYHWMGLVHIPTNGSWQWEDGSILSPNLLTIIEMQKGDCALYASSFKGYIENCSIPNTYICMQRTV

Measured: binding result

B1: ADI-27724 (antibody, V domains shown)
VH: QVQLQQWGAGLLKPSETLSLTCAVYGGSFSGYYWSWIRQPPGKGLEWIGEIDHSGSTNYNPSLKSRVTISVDTSKNQFSLKLSSVTAADTAVYYCARARGPWSFDPWGQGTLVTVSS
VL: not shown
binds: all assays above

Reference: patent publication US20200002436A1 (DRAGONFLY THERAPEUTICS, published 2020)
